± gives the standard deviation.
Test: protein stability index of a GFP-peptide fusion (GPS, HEK-293T) (PSI 1-6); higher = more stable
[1] = treatment: DMSO, c terminus: a fixed tail appended
[2] = treatment: MLN4924 1 uM, 8 h, c terminus: a fixed tail appended
[3] = treatment: DMSO, c terminus: native
[4] = treatment: MLN4924 1 uM, 8 h, c terminus: native
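Further: 24-mer peptide tiles fused after GFP, lentivirally expressed, FACS-sorted into six equal bins by GFP/DsRed ratio, decoded by Illumina sequencing, PSI is the read-weighted mean bin number.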

Sequence | protein stability index [1] | protein stability index [2] | protein stability index [3] | protein stability index [4]
FLANLHITALLNVSRRTSEACMTH [DUSP5] | 3.13 ± 0.42 | 3.48 ± 0.7 |  | 
ELAFAEDLVLDEEGARAAGLGELG [ESRRA] | 5.24 ± 0.2 | 5.19 ± 0.27 |  | 
RISFCADDKTDKRIFTFICKDSES [GULP1] | 3.52 ± 0.47 | 3.47 ± 0.96 |  | 
EVKPVLEVLVGKTIEQSLLEVMEE [RSPH3] | 2.48 ± 0.39 | 2.64 ± 0.48 |  | 
YDPWNAPEGIQKVAKCLIGVNYPK [CRY1] | 2.69 ± 0.13 | 2.87 ± 0.16 |  | 
SVVCRELGFGSAKEAVTGSRLGQG [LOXL2] | 3.69 ± 0.41 | 4.12 ± 0.44 |  | 
IAEVCCTSIVYATEKKQTKVEFPE [KCTD10] | 3.42 ± 0.18 | 3.9 ± 0.39 |  | 
DYELEDETRPAKRITITESNMKSR [WEE1] | 4.74 ± 0.35 | 5.16 ± 0.29 |  | 
ITRVLYEVFIEWGISAKVFGATTN [ZBED1] | 3.15 ± 0.88 | 3.04 ± 0.2 |  | 
NPVFQDSWDTESSGSDSGGSSSSS [FAM104A] | 5.37 ± 0.37 | 5.54 ± 0.26 |  | 
PQKRKPQEQLLECNKLCGRGQSRQ [SLC2A12] | 4.1 ± 0.37 | 4.4 ± 0.056 |  | 
HTRSLNSIIHQMEKFSSSLHELSS [FBF1] | 2.97 ± 0.21 | 3.06 ± 0.48 |  | 
IQLFEELQELLTHDTKDQSPSRAP [HMOX1] | 3.3 ± 0.29 | 3.61 ± 0.45 |  | 
FLGISIVGQSNERGDGGIYIGSIM [DVL3] | 2.87 ± 0.99 | 2.61 ± 0.68 |  | 
AVLGLYLLVFLILVGIFILAVSRP [SCARA5] | 3.3 ± 0.071 | 2.58 ± 0.63 |  | 
TFLKAFPLMGETQERERVLTHFSR [PSD2] | 2.45 ± 0.21 | 2.63 ± 0.39 |  | 
AQKLTIRLSSRYRYGQLIEINSHS [TRIP13] | 2.17 ± 0.55 | 2.01 ± 0.27 |  | 
EDSVFEERPERRSGPPASYCAKLC [C8orf76] | 4.44 ± 0.29 | 4.6 ± 0.07 |  | 
VRILLEHYYKENDPSVRLKIASLL [INTS4] | 2.09 ± 0.33 | 2.41 ± 0.4 |  | 
SSELETTSFFDSDEDDSTSRFSSS [DVL3] | 5.4 ± 0.32 | 5.51 ± 0.31 |  | 
GGWNFSTQKFTDMVATANNRQTFV [CHIT1] | 2.55 ± 0.29 | 2.81 ± 0.31 |  | 
SKPWHWPINYQGLRFSGVNDTDFR [POMT2] | 2.37 ± 0.17 | 2.52 ± 0.26 |  | 
IPSWQIRTVKLIRYVSNWDFFIVG [PKD2L1] | 2.79 ± 0.52 | 2.93 ± 0.7 |  | 

Sequence | protein stability index [1] | protein stability index [2] | protein stability index [3] | protein stability index [4]
QCPGLGPAPTPTPPGRLGAPYSEA [ZBED3] | 4.35 ± 0.15 | 4.25 ± 0.067 |  | 
MPLREGSSFQDLLGDALAGPPRAP [HES6] | 3.86 ± 0.34 | 4.05 ± 0.4 |  | 
GFKRDYYLIRVDGKGSIKELFPTG [VPS39] | 2.06 ± 0.29 | 2.25 ± 0.36 |  | 
ISYSSMLGAVAGLALGPILRLYKH [MFSD9] | 2.58 ± 0.5 | 2.13 ± 0.25 |  | 
LWHLAITDRSFNIVDIKPANMEDL [PPP2R2C] | 2.36 ± 0.23 | 2.41 ± 0.28 |  | 
TTQDLFAINRDTAFPGASHESSGN [RHOBTB3] | 4.57 ± 0.51 | 4.87 ± 0.15 |  | 
LDSIIDDRVILSSSTSCLMPSKLF [CRYL1] | 2.71 ± 0.38 | 2.77 ± 0.21 |  | 
SSISSSARRTTRSEPIRRAGKSGT [MAP2] | 4.89 ± 0.26 | 5.09 ± 0.16 |  | 
FLNDRLANYLEKVRQLERENAELE [KRT36] | 3.21 ± 0.25 | 3.54 ± 0.49 |  | 
EVPDSYTGPRLSFPLLPDHATALV [PPEF2] | 3.23 ± 0.27 | 3.42 ± 0.28 |  | 
VLCEAAFPKKLAFAYLEDLHSEFD [SEC22B] | 2.14 ± 0.28 | 2.31 ± 0.12 |  | 
LSDVQNPAISITENVLHFKAQGHG [HACD3] | 4.13 ± 0.19 | 4.28 ± 0.15 |  | 
CRLTHIPAYKVSGDKNEEQVLNAI [ZER1] | 3.5 ± 0.42 | 3.42 ± 0.3 |  | 
LCMDWCKDKRRIVSSSQDGKVIVW [GNB5] | 2.17 ± 0.14 | 2.33 ± 0.16 |  | 
LSEYVSRMKETQKSIYYITGESKE [HSP90AB1] | 3.69 ± 0.24 | 3.67 ± 0.2 |  | 
QARKRQEEREKEAAEQAERSQSSI [SMARCE1] | 5.26 ± 0.71 | 5.702 ± 0.038 |  | 
IGSTSESKDWEEVVVESMEQDRIP [MIA2] | 5.08 ± 0.32 | 5.11 ± 0.26 |  | 
EGSADTEDRKLPAPGADVKVHRAR [EHMT1] | 5.27 ± 0.44 | 5.41 ± 0.17 |  | 
HALSGHAKVKPFDPKITCKQECLI [TPH1] | 2.13 ± 0.27 | 2.12 ± 0.19 |  | 
GRGLYVYSLQMKRVIACQKTAHDS [WDR41] | 2.08 ± 0.42 | 2.15 ± 0.34 |  | 
KYFGCELGAQTQFDVKNDRYIVNG [EIF5] | 3.08 ± 0.35 | 3.27 ± 0.26 |  | 
RFYLLLFSFLGLLALGVSLLCNAI [PTGFR] | 2.4 ± 0.26 | 2.57 ± 0.24 |  | 
PRELFPPLFMAAFDGRHSQTLKAM [PRAME] | 2.65 ± 0.41 | 2.69 ± 0.27 |  | 

Sequence | protein stability index [1] | protein stability index [2] | protein stability index [3] | protein stability index [4]
QEAAERESKLLRDLSAANEKNLLL [LRRC45] | 4.37 ± 0.14 | 4.19 ± 0.13 |  | 
RELLEFTHMYLQSDDEMELEETEP [P3H4] | 4.98 ± 0.18 | 5.15 ± 0.22 |  | 
GRSGWPAGGAPGSPIPSPPGPGDD [HES6] | 5.2 ± 0.21 | 5.25 ± 0.093 |  | 
FIVIDAMLERIKHEKTVDIYGHVT [PTPRD] | 3.04 ± 1.2 | 2.5 ± 1.1 |  | 
RLVYKFGKNSSGWKEEEVLQSRN [ELF3] |  |  | 2.76 ± 0.35 | 3.21 ± 0.85
NSDMQILTASGDGTCALWDVESGQ [GNB5] | 4.81 ± 0.085 | 4.61 ± 0.36 |  | 
GLSVSSRFSSGGACGLGGGYGGGF [KRT16] | 2.2 ± 0.39 | 2.52 ± 0.38 |  | 
EPMRDQVARTHLTEDTPKVNADIE [NSDHL] | 5.32 ± 0.34 | 5.56 ± 0.075 |  | 
KASNSIISCFNNAPPAKLACPVCS [FAN1] | 2.92 ± 0.15 | 3.1 ± 0.4 |  | 
QLQSLCRGLGLGGRRLKSPQAPDP [FANCE] | 3.02 ± 1 | 3.16 ± 0.74 |  | 
KKHAAYAWPFYKPVDAEALELHDY [BRD3] | 2.97 ± 0.39 | 2.96 ± 0.38 |  | 
RKKTLVPGPPGSSRPVKGQVVTVH [FKBP8] | 3.53 ± 0.31 | 3.46 ± 0.2 |  | 
KDLQKEQKTLQVKCQHYKKKRTEQ [CEP70] | 4.92 ± 0.31 | 4.87 ± 0.032 |  | 
QLVVMHPTPQVDELDILPIHPPSG [BTBD10] | 3.74 ± 0.1 | 3.75 ± 0.11 |  | 
TERDEIEDVKCQEDQKLQVLLTQI [TRIM15] | 4.34 ± 0.2 | 4.54 ± 0.12 |  | 
DRLEEQLPWLSLRALKFRERDALE [DNAAF3] | 3.4 ± 0.24 | 3.42 ± 0.19 |  | 
GSFTVRADHGEPIGRGTKVILHLK [HSP90AB1] | 2.1 ± 0.3 | 2.71 ± 0.3 |  | 
LPGPKGDDGKLGATGPMGMRGFKG [SCARA5] | 4.7 ± 0.46 | 4.48 ± 0.2 |  | 
STSFLPELSSVHPPHYFFTYRIRI [FBXO3] | 2.66 ± 0.33 | 2.85 ± 0.48 |  | 
LALLNLACMMTITFLPYTFSLMVT [TMEM175] | 3.27 ± 0.32 | 3.38 ± 0.27 |  | 
APPAKLACPVCSKMVPRYDLNRHL [FAN1] | 2.39 ± 0.21 | 2.95 ± 0.55 |  | 
TSIVQAAAGGVPGGGSNNGKTPVC [PDLIM7] | 4.63 ± 0.17 | 4.81 ± 0.14 |  | 
VFQHHQYLSPLERKRLAREMQLSE [VENTX] | 2.81 ± 0.26 | 3.08 ± 0.37 |  | 

Sequence | protein stability index [1] | protein stability index [2] | protein stability index [3] | protein stability index [4]
VKQKISPYFKSNDVVCKNQDELRN [FAN1] | 3.84 ± 0.24 | 3.64 ± 0.44 |  | 
MAFLDKRLQVKEHQHEEIQNVRNH [ATL3] | 3.84 ± 0.069 | 3.98 ± 0.23 |  | 
AAAYTFLQRNPKHELTAKYLNYYQ [P3H4] | 2.25 ± 0.23 | 2 ± 0.33 |  | 
DEEVSGSSKTITAEIPDGPPVVAH [C18orf25] | 5.35 ± 0.25 | 5.41 ± 0.22 |  | 
GKTWKQICDKHWTAKNSRVVCGMF [LOXL2] | 2.06 ± 0.46 | 2.18 ± 0.46 |  | 
VCSDYASGYHYGVWSCEGCKAFFK [ESR2] | 2.33 ± 0.35 | 2.56 ± 0.34 |  | 
PEMRWNKGTILKASVDYIRKLQKE [TFE3] | 2.91 ± 0.24 | 2.95 ± 0.17 |  | 
MERPQPDSMPQDLSEALKEATKEV [HMOX1] | 5.44 ± 0.25 | 5.43 ± 0.22 |  | 
QDLCCRAIVSCTPVHLIDKLPLPV [RAB40C] | 2.4 ± 0.24 | 2.16 ± 0.18 |  | 
LALVTLLSFATRFHRLDEPPHICW [POMT2] | 3.25 ± 0.61 | 3.19 ± 0.22 |  | 
SPSCPEEALAATWEQPWASEVFGP [PXN] | 3.62 ± 0.24 | 3.63 ± 0.14 |  | 
VVWNAQTGEKLLELNGHTQKITAI [WDR41] | 2.19 ± 0.2 | 2.31 ± 0.17 |  | 
MQCPVIAVNSGGPLESIDHSVTGF [ALG2] | 2.83 ± 0.42 | 3.26 ± 0.3 |  | 
RLSGLSSVGHNWRKRMGTRRGRHE [C22orf15] | 4.08 ± 0.23 | 4.14 ± 0.19 |  | 
TKKRHTPRGHAESTSNRQPRKQG [SMOC2] |  |  | 2.59 ± 0.62 | 3.3 ± 0.49
FYNTEDIKDWEDRFYLLLFSFLGL [PTGFR] | 2.41 ± 0.7 | 2.1 ± 0.47 |  | 
AGKWRSYKGELFDKTPVLLTDYPV [MYORG] | 2.32 ± 0.21 | 2.43 ± 0.25 |  | 
LSPLSLAQYDSWPHYPEYFQQPAP [LOXL2] | 2.62 ± 0.12 | 2.87 ± 0.18 |  | 
SFQNMNSKRKAETWKKNRRQLAYS [STK38L] | 3.23 ± 0.33 | 3.33 ± 0.22 |  | 
FSVRPGTEATISIREDEVHRLGSP [SCNN1D] | 4.16 ± 0.16 | 4.2 ± 0.12 |  | 
